Target: human NPY2 receptor (HEK293/hNPY2R cells) (human) (UniProt P49146)
Experiment: cell-based or functional assay

Sequence of PYY(3-36) wild-type (peptide; modification not given) (chain, as listed by the source): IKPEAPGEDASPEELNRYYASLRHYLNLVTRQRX
Sequence of human NPY2 receptor (HEK293/hNPY2R cells) (human) (P49146 whole entry): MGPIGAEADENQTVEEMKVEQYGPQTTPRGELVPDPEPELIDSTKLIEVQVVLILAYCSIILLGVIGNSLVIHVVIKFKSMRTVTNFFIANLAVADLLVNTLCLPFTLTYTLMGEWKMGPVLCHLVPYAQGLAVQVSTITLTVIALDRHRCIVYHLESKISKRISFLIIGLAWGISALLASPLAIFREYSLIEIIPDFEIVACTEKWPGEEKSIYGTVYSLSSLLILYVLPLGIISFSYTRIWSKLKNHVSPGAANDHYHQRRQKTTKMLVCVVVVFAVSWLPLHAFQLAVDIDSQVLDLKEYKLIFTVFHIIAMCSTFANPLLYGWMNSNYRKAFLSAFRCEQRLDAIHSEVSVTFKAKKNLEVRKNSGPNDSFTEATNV

## PYY(3-36) wild-type (peptide; modification not given)
  EC50 [nM], cAMP assay (inhibition of Forskolin stimulated cAMP accumulation in HEK293/hNPY2R cells), day 1: 0.09 nM
  EC50 [nM], cAMP assay (inhibition of Forskolin stimulated cAMP accumulation in HEK293/hNPY2R cells), day 2: 0.1 nM
